Reference: the supplement of paper PMC9170038

Tested on: MS2 coat protein
Assay: apparent KD of MS2 coat protein; designed switch direction (-1 OFF switch, 1 ON switch): 1; higher = weaker reporter binding
Procedure, shortened: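 SNAP-549-labelled MS2 coat protein was titrated, doubling from 0.7 or 1.5 nM to 3 µM, over designed RNA switches transcribed on Illumina chips by stalled E. coli RNA polymerase. Runs were done without input, with 200 uM small-molecule ligand, or with an oligonucleotide input. Apparent KD is the per-design median over clusters of curve-fitted normalised fluorescence.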

[1] = Eterna round: R95, input ligand: FMN 200 uM
[2] = Eterna round: R95, input ligand: microRNA oligo, concentration not stated
[3] = Eterna round: R95, input ligand: none
[4] = input ligand: microRNA oligo, concentration not stated

| Sequence | apparent KD of MS2 coat protein [1] | apparent KD of MS2 coat protein [2] | apparent KD of MS2 coat protein [3] | apparent KD of MS2 coat protein (input ligand: FMN 200 uM) | apparent KD of MS2 coat protein [4] | apparent KD of MS2 coat protein (input ligand: none) |
| --- | --- | --- | --- | --- | --- | --- |
| AUAAAACAUGAGGAUCACCCAUGUCAACAAUGUCGAGGAUAUGGGCAAAUAAAAUAAGAACCAGAAGGCGAAUAAU [salish99_ss1_r3_039] (puzzle: Same State 1) | 43.2 nM | 248 nM | 507 nM |  |  |  |
| GAGUGGUGGAGAGGAUAUACAUUGAUAUUCACUGUAGAAGGUUCUAACAUGAGGAUCACCCAUGUAGGACUAUUCCUGAGAGUU [Parity 54 - Jieux - Same State NG 1] (Eterna round: R96, puzzle: Same State NG 1) |  |  |  | 11 nM | 8.99 nM | 14.7 nM |
| GCUGGAAACCACAUGAGGAUCACCCAUGUUCCGGAAACGGCACAGGAUAUCUGUCCGAAAAGGUCAGAGAAGGGUGUAACCAGC [Fiskers NG3ss - 86] (Eterna round: R96, puzzle: Same State NG 3) |  |  |  | 190 nM | 338 nM | 245 nM |
| AUUGCUAGCGCAGGAUAUGAUGCGAAAAUUGCGUCAGAAGGGUGUAAUCUCUCAUUGCGGGAGGACAUGAGGAUCACCCAUGUC [SameState NG1 #84] (Eterna round: R96, puzzle: Same State NG 1) |  |  |  |  | 123 nM |  |
| GUAGAUAUAAAGGAGGAUAUUCAAUGAGAGACAUGAGGAUCACCCAUGUGAGAGUGAGAUGAUAGGAAGAAGGCUUAGAGAGAUG [Altered State 2-6 - Jieux - Same State 2] (puzzle: Same State 2) | 64.1 nM | 54.9 nM | 72 nM |  |  |  |
| GACAAUCUAUCUGAGGAUAUCAUGAGAAUAACAUGAGGAUCACCCAUGUGCAGGAAAACUGCAUAUGAGAAGGCAGAUAGAUUGA [Mat - Same State 2 - Mod - D15] (puzzle: Same State 2) | 48.2 nM | 567 nM | 603 nM |  |  |  |
| AAACAUGAGCGAGGAUAUGCGGAGGAUUACCCUGUAGAAGGCGCAUGUAAAACAACAUGAGGAUCACCCAUGUCAUGUACAUGU (Eterna round: R96, puzzle: Same State NG 1) |  |  |  | 168 nM | 115 nM | 226 nM |
| UAGGGACAUGAGGAUCACCCAUGUGCCUCAUAUGGAGAAACACAGGAUAUGCUGAGGGAAACAUGGCAGAAGGGUGAAGAGAGG [Default title] (Eterna round: R96, puzzle: Same State NG 3) |  |  |  | 31.9 nM | 27.3 nM | 50.9 nM |
| UUUAGUUGCGCGCAGGAUAUGUAUUAAUAUACAUGAGGAUCACCCAUGUGAGACCAAAUAGGUCUGCAGAAGGGCGAAUCGCGAC [Laonerce - 28] (puzzle: Same State 2) | 45.4 nM | 139 nM | 199 nM |  |  |  |
| GUGGUCAGACAUGAGGAUCACCCAUGUGGAAUAAAUAAGGACUAGGAUAUUUAAUAUAGGAUAUAAAAGAAGGAGUGGUUGGUG (Eterna round: R96, puzzle: Same State NG 3) |  |  |  | 85.1 nM | 44.1 nM | 59.6 nM |
| UUGAAGAAUUAAGGAUAUUGAAUACAUAUGUUUAACAUGAGGAUCACCCAUGUGGGUUGCGGUAUCGAGAAGGUAAAUUAAUAG [Mat - Same State NG 2 - JL mod - D9] (Eterna round: R96, puzzle: Same State NG 2) |  |  |  | 142 nM | 98.4 nM | 118 nM |
| CUGCUACAUGAGGAUCACCCAUGUUGGAGUGAUGCAGGAUAUGUGGGACCAGAAGAUGAAACAGAAGGGCAAGGAG [JR_SS!_Sub006] (puzzle: Same State 1) | 110 nM | 95.7 nM | 152 nM |  |  |  |
| CCAUAACAGUGAGGAUAUUGUUGCGAUAAGUGACGAGAAGGCAUUCAUGUGAAAUAAACAUACAUGAGGAUCACCCAUGUUGUA [Omei SS(NG)1 Bv2] (Eterna round: R96, puzzle: Same State NG 1) |  |  |  | 17.9 nM | 19.8 nM | 26.7 nM |
| UGUCCAGCCUGAGCUGGACAAAAGCAUGUACAUGAGGAUCACCCAUGUUCAUGUACAAGCUUUUUGCUCGUCUUAUU [salish99_208a_r3_048] (puzzle: Sensor for hsa-mir-208a) | 465 nM | 14.1 nM | 491 nM |  |  |  |
| AUGGUGCAGGUACAGGAUAUGUUGCUCGUAACAUGAGGAUCACCCAUGUACCUAUGAGAUUAAAUGCAGAAGGGUGCACACCAAA [Mat - Same State 2 - Mod of UCT - D90] (puzzle: Same State 2) | 39.7 nM | 507 nM | 707 nM |  |  |  |
